Data as given in patent US20230416347A1.
Numbering of substitutions follows the chain as printed. Values belong to the binder of their own block, whether it stands above or below them.

Assays:
rVλ6Wil fibrils [1] = assay: EuLISA on rVλ6Wil fibrils (FIG. 5A)
rVλ6Wil fibrils [2] = assay: EuLISA on rVλ6Wil fibrils (FIG. 5B)

EC50 (rVλ6Wil fibrils [1]): 17 nM
B1: VH10/VL4 (antibody, V domains shown)
VH: QVQLQESGPGLVKPSETLSLTCTVSGFSLSSYGVSWIRQPPGKGLEWLGVIWGDGSTNYHPNLMSRLSISKDTSKSQVLLKLSSVTAADTAVYYCVTLDYWGQGTSVTVSS
VL: DVVMTQSPLSLPVTLGQPASISCRSSQSLVHRNGNTYLHWFQQRPGQSPRLLIYKVSNRFSGVPDRFSGSGSGTDFTLKISRVEAEDVGVYFCFQTTYVPNTFGGGTKLEIK

EC50 (rVλ6Wil fibrils [2]): 95 nM | EC50 (rVλ6Wil fibrils [1]): 95 nM
B2: VH6/VL3 (antibody, V domains shown)
VH: B1 VH with I37V, S76N, V78F, L79S, V92T
VL: B1 VL with F41Y, Q42L, V90L

EC50 (rVλ6Wil fibrils [1]): 16 nM
B3: VH8/VL4 (antibody, V domains shown)
VH: B1 VH with L48I, L67V, S68T, V78F, L79S
VL: B1 VL

EC50 (rVλ6Wil fibrils [1]): 75 nM
B4: VH7/VL4 (antibody, V domains shown)
VH: B1 VH with L48I, L67V, S68T, S76N
VL: B1 VL
